Assay results: patent US20250109209A1 (ABSCI, published 2025)
Substitutions are numbered along the chain they refer to. Values belong to the binder of their own block, whether it stands above or below them.

Assays:
human TL1A [1] = molecular target: T1, human TL1A (human, UniProt O95150 72-251); experiment: SPR, Fab format
T1 construct: Antigen in SPR and ELISA; Also used here for places that print only 'TL1A' and for endogenous TL1A in human whole blood; also called TNFSF15
T1 sequence (looked up): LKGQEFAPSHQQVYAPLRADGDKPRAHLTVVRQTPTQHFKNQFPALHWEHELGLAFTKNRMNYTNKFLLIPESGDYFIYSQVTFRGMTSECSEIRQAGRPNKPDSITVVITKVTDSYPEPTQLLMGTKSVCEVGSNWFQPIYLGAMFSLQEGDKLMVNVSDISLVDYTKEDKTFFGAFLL

human TL1A [2] = molecular target: T1, human TL1A; experiment: SPR, Fab lysate, average
Cyno TL1A = molecular target: T2, Cyno TL1A (cyno, UniProt G7PRK8 72-251); experiment: SPR, Fab format, average
T2 sequence: T1 sequence (looked up) with F39L, I78V

human TL1A [3] = molecular target: T1, human TL1A; experiment: SPR, Fab format, average

B1: Antibody 51 (Fab format) (Fab, V domains shown)
VH: QVQLQESGPGLVRPSQTLSLTCTVSGFDIQDTYMHWVRQRPGRGLEWMGRIEPAGGHTKYNPSLKSRVTITRDTSKNQVSLRLSSVTAADTAVYYCVRSGGLPDAWGQGSLVTVSS
VL: DIQMTQSPSSLSASVGDRVTITCRASQGVEYMYWYQQKPGKAPKLLIYGASNLASGVPSRFSGSGSGTDFTFTISSLQPEDIATYYCQQWEGNPRTFGQGTKVEIK
notes: Backup lead, Fab format
binding result (human TL1A [1]): binds

B3: Antibody 14 (Fab format) (Fab, V domains shown)
VH: B1 VH with F27L, I29P, Q30D, R98I, A105V
VL: B1 VL with V29I, E30Y
notes: High priority lead, Fab format
Kd (human TL1A [2]): 700 pM | Kd (human TL1A [1]): < 1000 pM | Kd (Cyno TL1A): 4250 pM | Kd (human TL1A [3]): 700 pM

B4: Antibody 3 (Fab format) (Fab, V domains shown)
VH: B1 VH
VL: B1 VL with E30R
notes: as for B3
Kd (human TL1A [2]): 310 pM | Kd (Cyno TL1A): 620 pM | Kd (human TL1A [3]): 310 pM

B5: Antibody 7 (Fab format) (Fab, V domains shown)
VH: B1 VH with I29M, Q30G, G55A, A105I
VL: B1 VL
notes: as for B3
Kd (human TL1A [2]): 430 pM | Kd (Cyno TL1A): 1630 pM | Kd (human TL1A [3]): 430 pM

B6: Antibody 5 (Fab format) (Fab, V domains shown)
VH: B1 VH with I29M, G55S, A105V
VL: B1 VL with E30M
notes: as for B3
Kd (human TL1A [2]): 330 pM | Kd (Cyno TL1A): 790 pM | Kd (human TL1A [3]): 330 pM

B8: Antibody 9 (Fab format) (Fab, V domains shown)
VH: B1 VH
VL: B1 VL with E30G, G49S
notes: as for B3
Kd (human TL1A [2]): 430 pM | Kd (human TL1A [1]): < 1000 pM | Kd (Cyno TL1A): 1990 pM | Kd (human TL1A [3]): 430 pM

B10: Antibody 18 (Fab format) (Fab, V domains shown)
VH: B1 VH with I29M, Q30G, L102M, A105V
VL: B1 VL with Q27S, G28S, E30S, G49Y
notes: as for B3
Kd (human TL1A [2]): 670 pM | Kd (human TL1A [1]): < 1000 pM | Kd (Cyno TL1A): 1280 pM | Kd (human TL1A [3]): 670 pM

B11: Antibody 15 (Fab format) (Fab, V domains shown)
VH: B1 VH
VL: B1 VL with V29I, E30Y
notes: as for B3
Kd (human TL1A [2]): 500 pM | Kd (human TL1A [1]): < 1000 pM | Kd (Cyno TL1A): 1810 pM | Kd (human TL1A [3]): 500 pM

B15: Antibody 12 (Fab format) (Fab, V domains shown)
VH: B1 VH with Q30T, A105V
VL: B1 VL with G49S
notes: as for B3
Kd (human TL1A [2]): 430 pM | Kd (human TL1A [1]): < 1000 pM | Kd (Cyno TL1A): 1290 pM | Kd (human TL1A [3]): 430 pM

B16: Antibody 4 (Fab format) (Fab, V domains shown)
VH: B1 VH with I29M, Q30A, A105M
VL: B1 VL with Q27S, G28S, E30S
notes: as for B3
Kd (human TL1A [2]): 330 pM | Kd (Cyno TL1A): 160 pM | Kd (human TL1A [3]): 330 pM

B17: Antibody 1 (Fab format) (Fab, V domains shown)
VH: B1 VH with V97A, R98S, L102M, A105L
VL: B1 VL
notes: High priority lead, Fab format; also called Lead #1
Kd (human TL1A [2]): 170 pM | Kd (Cyno TL1A): 170 pM | Kd (human TL1A [3]): 170 pM

B18: Antibody 8 (Fab format) (Fab, V domains shown)
VH: B1 VH with I29M, D31S, A105V
VL: B1 VL with Q27S, G28S, E30S
notes: as for B3
Kd (human TL1A [2]): 380 pM | Kd (Cyno TL1A): 3260 pM | Kd (human TL1A [3]): 380 pM

B19: Antibody 17 (Fab format) (Fab, V domains shown)
VH: B1 VH with I29M, Q30G, G55A, A105V
VL: B1 VL
notes: as for B3
Kd (human TL1A [2]): 570 pM | Kd (human TL1A [1]): < 1000 pM | Kd (Cyno TL1A): 330 pM | Kd (human TL1A [3]): 570 pM

B21: Antibody 2 (Fab format) (Fab, V domains shown)
VH: B1 VH with F27L, I29P, Q30D, R98I, A105V
VL: B1 VL with Q27S, G28S, E30S, G49A, A50T
notes: as for B3
Kd (human TL1A [2]): 200 pM | Kd (Cyno TL1A): 940 pM | Kd (human TL1A [3]): 200 pM

B22: Antibody 11 (Fab format) (Fab, V domains shown)
VH: B1 VH with I29M, Q30G, L102M, A105V
VL: B1 VL with G49S
notes: as for B3
Kd (human TL1A [2]): 480 pM | Kd (human TL1A [1]): < 1000 pM | Kd (Cyno TL1A): 380 pM | Kd (human TL1A [3]): 480 pM

B23: Antibody 6 (Fab format) (Fab, V domains shown)
VH: B1 VH with I29M, Q30A, A105M
VL: B1 VL with G49S
notes: as for B3
Kd (human TL1A [2]): 410 pM | Kd (Cyno TL1A): 260 pM | Kd (human TL1A [3]): 410 pM

B25: Antibody 13 (Fab format) (Fab, V domains shown)
VH: B1 VH with I29Y, E52D, G55S, V97A, R98V, L102M, A105V
VL: B1 VL with G49A, A50T
notes: as for B3
Kd (human TL1A [2]): 430 pM | Kd (human TL1A [1]): < 1000 pM | Kd (Cyno TL1A): 340 pM | Kd (human TL1A [3]): 430 pM

B26: Antibody 10 (Fab format) (Fab, V domains shown)
VH: B1 VH with F27L, I29P, Q30D, R98I, A105V
VL: B1 VL
notes: as for B3
Kd (human TL1A [2]): 480 pM | Kd (human TL1A [1]): < 1000 pM | Kd (Cyno TL1A): 1830 pM | Kd (human TL1A [3]): 480 pM

B27: Antibody 20 (Fab format) (Fab, V domains shown)
VH: B1 VH with G55S, V97A, L102M, A105M
VL: B1 VL with E30M
notes: as for B3
Kd (human TL1A [2]): 760 pM | Kd (human TL1A [1]): < 1000 pM | Kd (Cyno TL1A): 1280 pM | Kd (human TL1A [3]): 760 pM

B28: Antibody 16 (Fab format) (Fab, V domains shown)
VH: B1 VH with I29M, D31S, A105V
VL: B1 VL
notes: as for B3
Kd (human TL1A [2]): 510 pM | Kd (human TL1A [1]): < 1000 pM | Kd (Cyno TL1A): 320 pM | Kd (human TL1A [3]): 510 pM

B29: Antibody 19 (Fab format) (Fab, V domains shown)
VH: B1 VH with Q30T, A105V
VL: B1 VL with G49Y
notes: as for B3
Kd (human TL1A [2]): 720 pM | Kd (human TL1A [1]): < 1000 pM | Kd (Cyno TL1A): 5140 pM | Kd (human TL1A [3]): 720 pM

Second part, the binder after the results:

binding result (human TL1A [1]): binds
B2: Antibody 33 (Fab format) (Fab, V domains shown)
VH: B1 VH
VL: B1 VL with G49A, A50T
notes: Backup lead, Fab format

binding result (human TL1A [1]): binds
B7: Antibody 45 (Fab format) (Fab, V domains shown)
VH: B1 VH with Q30E, G55S, V97A, R98I, L102V, A105V
VL: B1 VL with Q27S, G28S, E30S, G49A, A50T
notes: Backup lead, Fab format

binding result (human TL1A [1]): binds
B9: Antibody 39 (Fab format) (Fab, V domains shown)
VH: B1 VH
VL: B1 VL with Q27S, G28S, E30S, G49A, A50T
notes: Backup lead, Fab format

binding result (human TL1A [1]): binds
B12: Antibody 41 (Fab format) (Fab, V domains shown)
VH: B1 VH with Q30T, A105V
VL: B1 VL with Q27S, G28S, E30S, G49S
notes: Backup lead, Fab format

binding result (human TL1A [1]): binds
B13: Antibody 30 (Fab format) (Fab, V domains shown)
VH: B1 VH
VL: B1 VL with Q27S, G28S, E30S, G49S
notes: Backup lead, Fab format

binding result (human TL1A [1]): binds
B14: Antibody 42 (Fab format) (Fab, V domains shown)
VH: B1 VH with Q30T, A105V
VL: B1 VL with E30G
notes: Backup lead, Fab format

binding result (human TL1A [1]): binds
B20: Antibody 53 (Fab format) (Fab, V domains shown)
VH: B1 VH with G55S, V97A, L102M, P103M, A105R
VL: B1 VL with E30R
notes: Backup lead, Fab format

binding result (human TL1A [1]): binds
B24: Antibody 34 (Fab format) (Fab, V domains shown)
VH: B1 VH with F27L, I29P, Q30D, R98I, A105V
VL: B1 VL with V29I, E30Y, G49A, A50T
notes: Backup lead, Fab format

binding result (human TL1A [1]): binds
B30: Antibody 27 (Fab format) (Fab, V domains shown)
VH: B1 VH
VL: B1 VL with E30R, G49A, A50T
notes: Backup lead, Fab format

binding result (human TL1A [1]): binds
B31: Antibody 24 (Fab format) (Fab, V domains shown)
VH: B1 VH
VL: B1 VL with E30G, G49A, A50T
notes: Backup lead, Fab format
